Reference: IntAct's records for PubMed 23503662

B1: F-box/LRR-repeat protein 3 (Homo sapiens), Q9UKT7 (parent)
chain: MKRGGRDSDRNSSEEGTAEKSKKLRTTNEHSQTCDWGNLLQDIILQVFKYLPLLDRAHASQVCRNWNQVFHMPDLWRCFEFELNQPATSYLKATHPELIKQIIKRHSNHLQYVSFKVDSSKESAEAACDILSQLVNCSLKTLGLISTARPSFMDLPKSHFISALTVVFVNSKSLSSLKIDDTPVDDPSLKVLVANNSDTLKLLKMSSCPHVSPAGILCVADQCHGLRELALNYHLLSDELLLALSSEKHVRLEHLRIDVVSENPGQTHFHTIQKSSWDAFIRHSPKVNLVMYFFLYEEEFDPFFRYEIPATHLYFGRSVSKDVLGRVGMTCPRLVELVVCANGLRPLDEELIRIAERCKNLSAIGLGECEVSCSAFVEFVKMCGGRLSQLSIMEEVLIPDQKYSLEQIHWEVSKHLGRVWFPDMMPTW
partner: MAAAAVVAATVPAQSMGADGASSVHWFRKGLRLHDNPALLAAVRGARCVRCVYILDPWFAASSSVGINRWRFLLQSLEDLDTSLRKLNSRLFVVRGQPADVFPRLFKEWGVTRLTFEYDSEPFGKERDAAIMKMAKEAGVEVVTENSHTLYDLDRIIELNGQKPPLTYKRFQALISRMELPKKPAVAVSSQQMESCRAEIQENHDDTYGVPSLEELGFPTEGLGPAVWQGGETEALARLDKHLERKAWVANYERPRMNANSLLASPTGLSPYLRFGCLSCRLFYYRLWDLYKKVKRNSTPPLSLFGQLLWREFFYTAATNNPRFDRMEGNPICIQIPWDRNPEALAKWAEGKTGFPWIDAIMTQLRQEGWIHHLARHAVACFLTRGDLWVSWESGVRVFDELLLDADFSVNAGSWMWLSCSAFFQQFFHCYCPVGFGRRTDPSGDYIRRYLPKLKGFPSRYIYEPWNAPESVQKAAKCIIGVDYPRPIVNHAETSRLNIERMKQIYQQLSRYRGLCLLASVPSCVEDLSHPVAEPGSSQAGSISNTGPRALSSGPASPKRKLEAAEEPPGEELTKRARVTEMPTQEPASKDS
B2: Cryptochrome-2 (Mus musculus), Q9R194 (parent)
chain: B1 partner

Variants of: B1
Conditions: with cry2_mouse Cry2, Q9R194

Variant	effect of a mutation on the interaction
Y292A	decreasing interaction strength
Y314A	disrupting interaction strength
E336A	disrupting interaction strength
P426A	disrupting interaction strength
W428A	decreasing interaction strength

Variants of: B2
Conditions: with per1_human PER1, O15534
Sequence of per1_human PER1, O15534 (O15534 whole entry): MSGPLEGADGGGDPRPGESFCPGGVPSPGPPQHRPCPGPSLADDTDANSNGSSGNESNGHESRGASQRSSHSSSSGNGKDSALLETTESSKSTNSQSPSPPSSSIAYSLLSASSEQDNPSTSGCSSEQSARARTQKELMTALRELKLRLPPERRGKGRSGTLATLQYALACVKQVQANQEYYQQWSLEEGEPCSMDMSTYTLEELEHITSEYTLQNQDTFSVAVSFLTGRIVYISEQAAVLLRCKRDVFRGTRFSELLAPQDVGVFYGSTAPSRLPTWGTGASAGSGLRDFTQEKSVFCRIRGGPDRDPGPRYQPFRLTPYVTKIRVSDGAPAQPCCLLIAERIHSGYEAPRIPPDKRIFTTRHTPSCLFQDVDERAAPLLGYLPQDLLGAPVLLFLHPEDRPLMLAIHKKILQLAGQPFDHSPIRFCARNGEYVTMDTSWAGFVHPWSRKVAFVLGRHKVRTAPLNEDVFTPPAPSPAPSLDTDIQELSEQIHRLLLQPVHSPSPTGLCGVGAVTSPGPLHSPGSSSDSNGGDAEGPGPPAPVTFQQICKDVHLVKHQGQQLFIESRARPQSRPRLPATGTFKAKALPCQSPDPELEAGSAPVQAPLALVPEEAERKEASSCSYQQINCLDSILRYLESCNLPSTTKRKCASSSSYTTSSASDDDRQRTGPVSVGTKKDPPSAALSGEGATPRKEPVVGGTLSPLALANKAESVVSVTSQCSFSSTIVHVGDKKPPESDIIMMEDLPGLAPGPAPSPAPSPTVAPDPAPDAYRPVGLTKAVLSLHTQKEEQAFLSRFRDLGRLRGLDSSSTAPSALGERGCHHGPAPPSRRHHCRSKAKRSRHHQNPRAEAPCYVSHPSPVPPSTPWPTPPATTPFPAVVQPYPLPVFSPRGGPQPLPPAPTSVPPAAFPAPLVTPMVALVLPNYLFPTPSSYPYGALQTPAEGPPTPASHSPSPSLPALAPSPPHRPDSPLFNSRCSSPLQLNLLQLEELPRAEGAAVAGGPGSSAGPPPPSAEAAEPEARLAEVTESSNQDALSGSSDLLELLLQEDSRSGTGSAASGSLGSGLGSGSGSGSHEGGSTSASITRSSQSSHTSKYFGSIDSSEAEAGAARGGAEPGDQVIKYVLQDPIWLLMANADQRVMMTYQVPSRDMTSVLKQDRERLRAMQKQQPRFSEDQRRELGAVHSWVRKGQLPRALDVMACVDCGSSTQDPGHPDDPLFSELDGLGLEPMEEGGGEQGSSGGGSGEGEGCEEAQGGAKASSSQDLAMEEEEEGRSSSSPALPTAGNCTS

Variant	effect of a mutation on the interaction
D339R	disrupting interaction strength
